In assay [1] the target is β-VHP ribosome-nascent chain complexes (RNCs) (not stated | rabbit (endogenous in reticulocyte lysate)) (UniProt P60468).
For assay [2], the target named is 60S-nascent chain-tRNA complex (β-VHP) (not stated | rabbit (endogenous in reticulocyte lysate)) (UniProt P60468).
For another assay, the target named is Pelota (UniProt Q9BRX2). Briefly: pull-down; 800 μl RRL incubated with 200 μl of Pelota resin (Pelota immobilized via CnBr); unconjugated quenched CnBr resin as control; depleted lysate blotted for Hbs1.
Sequence of UniProt Q9BRX2 (Q9BRX2 whole entry): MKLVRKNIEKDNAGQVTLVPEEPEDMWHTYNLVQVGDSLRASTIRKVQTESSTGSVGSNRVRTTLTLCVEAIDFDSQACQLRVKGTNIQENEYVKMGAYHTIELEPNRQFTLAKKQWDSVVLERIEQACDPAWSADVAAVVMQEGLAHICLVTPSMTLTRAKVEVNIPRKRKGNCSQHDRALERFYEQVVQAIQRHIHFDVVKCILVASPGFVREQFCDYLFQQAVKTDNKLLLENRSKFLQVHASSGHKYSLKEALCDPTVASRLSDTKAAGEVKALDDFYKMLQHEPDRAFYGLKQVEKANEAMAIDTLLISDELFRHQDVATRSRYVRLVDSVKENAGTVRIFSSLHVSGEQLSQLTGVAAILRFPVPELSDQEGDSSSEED

In assay [1], Listerin (enzyme) gave an inhibition of β-VHP nascent chain ubiquitination by the GTPase mutant Hbs1 H348A (Hbs1-DN) added to the translation reaction of 90% and an inhibition of β-VHP nascent chain ubiquitination by the GTPase mutant Hbs1 V269G added to the translation reaction of 60%. This substance also showed a nascent chain ubiquitination of sucrose gradient fractions incubated with E1, E2, ubiquitin and ATP; 60S-nascent chain complexes against 80S RNCs in assay [2] of 10 fold.
Hbs1 (enzyme) displayed a percent of Hbs1 depleted from the lysate by the Pelota resin with Pelota of 80 to 90%.

Source of the values: publication PMC3719020.
